System: T1, DNA polymerase 3173 (uncultured hot spring virus (Octopus Spring))
T1 sequence: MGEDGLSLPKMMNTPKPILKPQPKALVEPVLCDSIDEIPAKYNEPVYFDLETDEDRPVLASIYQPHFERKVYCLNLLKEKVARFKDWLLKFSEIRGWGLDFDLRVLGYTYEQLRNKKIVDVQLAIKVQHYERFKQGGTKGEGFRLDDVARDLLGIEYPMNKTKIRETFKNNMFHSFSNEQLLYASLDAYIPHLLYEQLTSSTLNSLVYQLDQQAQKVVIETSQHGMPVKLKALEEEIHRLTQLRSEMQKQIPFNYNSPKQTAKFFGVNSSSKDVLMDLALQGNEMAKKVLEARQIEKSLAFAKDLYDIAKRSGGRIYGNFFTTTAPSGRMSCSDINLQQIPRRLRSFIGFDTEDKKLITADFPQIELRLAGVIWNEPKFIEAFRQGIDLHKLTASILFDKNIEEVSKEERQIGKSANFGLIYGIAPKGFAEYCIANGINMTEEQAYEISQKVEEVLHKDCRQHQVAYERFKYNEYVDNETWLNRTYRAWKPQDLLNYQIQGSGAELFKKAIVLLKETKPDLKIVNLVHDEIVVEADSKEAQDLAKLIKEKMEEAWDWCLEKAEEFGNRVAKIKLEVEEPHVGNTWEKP
Settings: dNTP incorporation, 60 C, 2 mM MgSO4; background <100 cpm

Substance: activated calf thymus DNA
- activity: > 1000 cpm

Reference: US20100291638
